The subject of series [1] is Tetracycline aptamer, RNA-MaP condition construct (RNA, aptamer) GGAAAGGCGCUAAAACAUACCAGUUCGCUGGAGAGGUGAAGAAUACGACCACCUAGCGCCAAAGAAACAACAACAACAAC
The series can be described thus: 1M7 chemical mapping. Conditions: 80 mM KCl, 4 mM MgCl2; 100 mM Tris-HCl, pH 7.5, 37 °C.

In series [2] the test system is Tetracycline aptamer, Light-up construct (RNA, aptamer) GGGAACGUCUCCGAGUAGGAGACGAAGGGAGAGUGGCAGCUUACAACGCUAAAACAUACCUGCACCACCGACCUUGAAAACAAGGGUAACGAAUGUGGAGCAGGAGAGGUGAAGAAUACGACCACCUAGCGAAGUGGGCUGUUGCUUUUCCAAGCUUAUCGAGUAGAUAAGCAAAAAGAAACAACAACAACAAC
The series can be described thus: DMS chemical mapping. Conditions: 5 mM MgCl2, 1x PBS, pH 6.1, 24 °C.

Series [3] concerns BH_E029 (RNA, aptamer) GGGAGAGUGGCAGCUUACAACGUAACGAUGCGGCCGCCACUGAUCCGACUGGUUAACAGAAAGUCCUGACCAGGUAACGAAUGGUCAGGACCGGGCAUUGUUACGAAGUGGGCUGUUGCUUUUCC
As to the kind of experiment: light-up fluorescence kinetics. Conditions: 5 mM MgCl2, 1x PBS, pH 6.1, with tryptophan (ON state).

The test system of series [4] is FMN aptamer, RNA-MaP condition construct (RNA, aptamer) GGAAAGGCGUGUAGGAUAUGCUUCGGCAGAAGGACACGCCAAAGAAACAACAACAACAAC
The series can be described thus: 1M7 chemical mapping. Conditions: 80 mM KCl, 4 mM MgCl2; 100 mM Tris-HCl, pH 7.5, 37 °C.

Series [5] deals with FMN aptamer, Light-up construct (RNA, aptamer) GGGAACGUCUCCGAGUAGGAGACGAAGGGAGAGUGGCAGCUUACAAUUCCAGCCGACCACUGAAAUACUCUAGAGGAUAUGACAGACAAAGUCUGUCAGAAGGCUAGAGCAGUGGGUAACGAAUGCUGGAAAAGUGGGCUGUUGCUUUUCCAAGCUUAUCGAGUAGAUAAGCAAAAAGAAACAACAACAACAAC
The series can be described thus: DMS chemical mapping. Conditions: 5 mM MgCl2, 1x PBS, pH 6.1, 24 °C.

Series [6] concerns BC_JL-sng2-3.09 (RNA, aptamer) GGGUAUGUCGCAGAAGUAGCUAUCGGAGGAUAUUCAUACCGGAAACGGACAUGAGGAUCACCCAUGUGGCGAAAGCCUUGGGAGAAGGCUGAUAGCUACAACUGCGACAUACCCAAAAAAAAAAAAAAAAAAAAAAAAA
As to the kind of experiment: flow cytometry of RNA beads with MS2 protein; DMS chemical mapping. Conditions: RNA immobilised on beads; reversible over 80 FMN buffer exchanges.

The target of series [7] is T1, MS2 coat protein, dlFG mutant (Escherichia phage MS2, UniProt P03612, del68-81insG). As to the kind of experiment: 4 mM Mg2+; no ligand; RNA-MaP array; 100 mM Tris-HCl pH 7.5, 80 mM KCl, 4 mM MgCl2, 0.1 mg/mL BSA, 1 mM DTT, 0.01 mg/mL yeast tRNA, 0.01% Tween-20; protein 1.5 nM to 3 uM; 37 C (Table S3). Conditions: chain copies: 2; label: tethered by stalled RNA polymerase.

Series [8] addresses T1, MS2 coat protein, dlFG mutant. The series can be described thus: 4 mM Mg2+; FMN 200 uM; RNA-MaP array; 100 mM Tris-HCl pH 7.5, 80 mM KCl, 4 mM MgCl2, 0.1 mg/mL BSA, 1 mM DTT, 0.01 mg/mL yeast tRNA, 0.01% Tween-20; protein 1.5 nM to 3 uM; 37 C (Table S3). Conditions: chain copies: 2; label: tethered by stalled RNA polymerase.
Series [9] has the same target. The series can be described thus: 4 mM Mg2+; L-tryptophan 2.4 mM; RNA-MaP array; 100 mM Tris-HCl pH 7.5, 80 mM KCl, 4 mM MgCl2, 0.1 mg/mL BSA, 1 mM DTT, 0.01 mg/mL yeast tRNA, 0.01% Tween-20; protein 1.5 nM to 3 uM; 37 C (Table S3). Conditions: chain copies: 2; label: tethered by stalled RNA polymerase.

The values below come from publication PMC9170038.

`CN(C)[C@@H]1C(=O)C(C(N)=O)=C(O)[C@@]2(O)C(=O)C3=C(O)c4c(O)cccc4[C@@](C)(O)[C@H]3C[C@@H]12`: the Kd in series [1] is on record as 622.07 ± 132.12/-105.63 nM; in series [2] it was 57.50 ± 22.58/-15.88 nM.

With `CN(C)c1ccc(C(=C2C=CC(=[N+](C)C)C=C2)c2ccccc2)cc1`, in [3], the binding entry is “yes”.

`Cc1cc2nc3c(=O)[nH]c(=O)nc-3n(C[C@H](O)[C@H](O)[C@H](O)COP(=O)(O)O)c2cc1C`: the Kd in series [4] was 1.71 ± 0.60/-0.44 μM; in series [5], 1.57 ± 0.58/-0.41 μM. Moreover, the binding result in series [6] is recorded as “yes”.

B1: Eterna 7726098 (Exclusion - FMN A) (ssRNA)
RNA: AAGUGAUGUUGUAGUGAUGUUGUGAUGUUGCAGGAUAUAUAGUGAUGUAGAAGGGUAAGUACUUAUUUUUUUUUUGAGUUAUGUU
B1: in series [7], the Kd was above 3000 nM.

B2: Eterna 6449046 (Small Loop Same State NG 1) (ssRNA)
RNA: AAUAAACACACAGGAUAUAGCAUCGUCGUUGCGAACUUAGCGACGACGAUGCUAGAAGGGUGAACACAUGAGGAUCACCCAUGU
With B2, the Kd in [7] worked out at 195 nM.

B3: Eterna 7752556 (Exclusion - Arginine B) (ssRNA)
RNA: UUAGUCUAGAGAAGGAGCGAGUGAUGUUCGCAUGCUAUGAUGAAUUCAUCAUAGUUUAAUCCUCAGGUAGGUCGCUCUAGACAUU
B3 registered a Kd in series [7] above 3000 nM.

B4: Eterna 6391704 (Inverted Exclusion NG 3) (ssRNA)
RNA: AGCUGGUGACAGCAUCCAUCUUAACAUGAGGAUCACCCAUGUAGAAGGCUGUACGGUUACCGUACAGAGGAUAUACAUAGAUGG
For B4, the equilibrium dissociation constant (Kd) in series [8] is 9.28 nM.

B5: Eterna 7675419 (Same State - Tryptophan A) (ssRNA)
RNA: UUUAAACAUAGUGAUGUUAUGUAACAAUGACGAGGACCGGUACGGCCGCCACUCGAGAGAGAUGAUGGUAAAAUAAAUAAUUUUC
In turn, B5 showed a Kd in [7] above 3000 nM.

B6: Eterna 6121097 (Same State NG 1) (ssRNA)
RNA: CGCUGUCACGCAGGAUAUGCAUUGGAUUACAAUGCAGAAGGGCGAUUACAUGAGGAUCACCCAUGUGUCGACAGUGAAGAAGAG
Molecule B6 displayed a Kd in [7] of 532 nM.

B7: Eterna 7681146 (Same State - Arginine A) (ssRNA)
RNA: ACUGGGUUGACGAAAGUCAACAAAAGAGAAGGAGCGCACGAAAGUGCAGGUAGGUCGCUCAUCCAGUGAUGUUGGAUCAUCCAGA
B7 yielded a Kd in series [7] above 3000 nM.

B8: Eterna 7616241 (Exclusion - Tryptophan A) (ssRNA)
RNA: AAUGUAUGCCACAUGAGGAUCACCCAUGUGCGAGGACCGGUACGGCCGCCACUCGGUCGGUGGUUAAUGAAGAUAUACAAUAAUG
B8 gave a Kd in series [9] of 15.5 nM.

B9: Eterna 1206 (Exclusion - Tryptophan A) (ssRNA)
RNA: CUAUAGACCCUUCGGAUAGUGAUGUUGUCACGAGGACCGGUACGGCCGCCACUCGCUGCCACCAUACCGCUUCACGGAACGAGCA
B9 came in with a Kd in series [7] above 3000 nM.

B10: Eterna 7759081 (Exclusion - Theophylline A) (ssRNA)
RNA: AACUGUCAAGGACAACAUUACUGAGGUGAUACCAGCAUCGAAAGAUGCCCUUGGCAGCGCCAACUUGCAGUGAUGUUGCAAGUAA
As for B10, in [7], the Kd was above 3000 nM.

B11: Eterna 7671436 (Same State - Theophylline A) (ssRNA)
RNA: UGGACCUGACUCGAUAAGAGUCAAGGAGAUACCAGCCACGAAAGUGGCCCUUGGCAGCUCUGCCAGUGAUGUUGGUCAAGGUCCU
In turn, B11 had a Kd in series [7] above 3000 nM.

B12: Eterna 1165 (Exclusion - Theophylline B) (ssRNA)
RNA: CCAAGCGUCAGCGAUACCAGAAUUCUAGUGAUGUUAGGUUCUGUCAUUGUACUAGCAGUGUUCCCUUGGCAGCGCGUGAUAGGCA
For the molecule B12, in series [7], the Kd was above 3000 nM.

B13: Eterna 6402672 (Exclusion NG 2) (ssRNA)
RNA: UGGCCCGCCGGAGGAUAUCUACUCUGUGGUGCACUGCGUUUGCAAUACAUGAGGAUCACCCAUGUAGAGAAGGCCGAGGGCACA
In series [7], B13 had a Kd of 269 nM.

As a reminder, the Kd is the equilibrium constant for the complex coming apart. A lower Kd goes with tighter binding.
